Experimental data from US20230220035A1 (DONG-A ST CO., LTD., published 2023).
*1 amine or outer side, *2 acyl side, *3 side chain or, on linkers, in order; H or OH if unused. Side-chain parts run from the residue outwards. [ ]: non-standard residue; d: D form. The star is where a group is joined. C18 diacid = O=C(O)CCCCCCCCCCCCCCCCC(=O)*; γGlu = O=C(O)[C@H](CCC(=O)[*:2])N[*:1]; C14 diacid = O=C(O)CCCCCCCCCCCCC(=O)*; Stearoyl = CCCCCCCCCCCCCCCCCC(=O)*; AEEA = NCCOCCOCC(=O)O; Aib = CC(C)(N)C(=O)O

B1: Compound 1 (peptide)
peptide: H-H[Aib]QGTFTSDK([AEEA-AEEA-γGlu-Stearoyl])SKYLD[Aib]RRAQDFVQWLMNTKEYEK(C14 diacid)EYE-OH
SMILES: CCCCCCCCCCCCCCCCCC(=O)N[C@@H](CCC(=O)NCCOCCOCC(=O)NCCOCCOCC(=O)NCCCC[C@H](NC(=O)[C@H](CC(=O)O)NC(=O)[C@H](CO)NC(=O)[C@@H](NC(=O)[C@H](Cc1ccccc1)NC(=O)[C@@H](NC(=O)CNC(=O)[C@H](CCC(N)=O)NC(=O)C(C)(C)NC(=O)[C@@H](N)Cc1c[nH]cn1)[C@@H](C)O)[C@@H](C)O)C(=O)N[C@@H](CO)C(=O)N[C@@H](CCCCN)C(=O)N[C@@H](Cc1ccc(O)cc1)C(=O)N[C@@H](CC(C)C)C(=O)N[C@@H](CC(=O)O)C(=O)NC(C)(C)C(=O)N[C@@H](CCCNC(=N)N)C(=O)N[C@@H](CCCNC(=N)N)C(=O)N[C@@H](C)C(=O)N[C@@H](CCC(N)=O)C(=O)N[C@@H](CC(=O)O)C(=O)N[C@@H](Cc1ccccc1)C(=O)N[C@H](C(=O)N[C@@H](CCC(N)=O)C(=O)N[C@@H](Cc1c[nH]c2ccccc12)C(=O)N[C@@H](CC(C)C)C(=O)N[C@@H](CCSC)C(=O)N[C@@H](CC(N)=O)C(=O)N[C@H](C(=O)N[C@@H](CCCCN)C(=O)N[C@@H](CCC(=O)O)C(=O)N[C@@H](Cc1ccc(O)cc1)C(=O)N[C@@H](CCC(=O)O)C(=O)N[C@@H](CCCCNC(=O)CCCCCCCCCCCCC(=O)O)C(=O)N[C@@H](CCC(=O)O)C(=O)N[C@@H](Cc1ccc(O)cc1)C(=O)N[C@@H](CCC(=O)O)C(=O)O)[C@@H](C)O)C(C)C)C(=O)O
B2: Compound 3 (peptide)
peptide: H-H[Aib]QGTFTSDK([AEEA-AEEA-γGlu-Stearoyl])SKYLD[Aib]RRAQDFVQWLMNTKEYEK(C18 diacid)EYE-OH
SMILES: CCCCCCCCCCCCCCCCCC(=O)N[C@@H](CCC(=O)NCCOCCOCC(=O)NCCOCCOCC(=O)NCCCC[C@H](NC(=O)[C@H](CC(=O)O)NC(=O)[C@H](CO)NC(=O)[C@@H](NC(=O)[C@H](Cc1ccccc1)NC(=O)[C@@H](NC(=O)CNC(=O)[C@H](CCC(N)=O)NC(=O)C(C)(C)NC(=O)[C@@H](N)Cc1c[nH]cn1)[C@@H](C)O)[C@@H](C)O)C(=O)N[C@@H](CO)C(=O)N[C@@H](CCCCN)C(=O)N[C@@H](Cc1ccc(O)cc1)C(=O)N[C@@H](CC(C)C)C(=O)N[C@@H](CC(=O)O)C(=O)NC(C)(C)C(=O)N[C@@H](CCCNC(=N)N)C(=O)N[C@@H](CCCNC(=N)N)C(=O)N[C@@H](C)C(=O)N[C@@H](CCC(N)=O)C(=O)N[C@@H](CC(=O)O)C(=O)N[C@@H](Cc1ccccc1)C(=O)N[C@H](C(=O)N[C@@H](CCC(N)=O)C(=O)N[C@@H](Cc1c[nH]c2ccccc12)C(=O)N[C@@H](CC(C)C)C(=O)N[C@@H](CCSC)C(=O)N[C@@H](CC(N)=O)C(=O)N[C@H](C(=O)N[C@@H](CCCCN)C(=O)N[C@@H](CCC(=O)O)C(=O)N[C@@H](Cc1ccc(O)cc1)C(=O)N[C@@H](CCC(=O)O)C(=O)N[C@@H](CCCCNC(=O)CCCCCCCCCCCCCCCCC(=O)O)C(=O)N[C@@H](CCC(=O)O)C(=O)N[C@@H](Cc1ccc(O)cc1)C(=O)N[C@@H](CCC(=O)O)C(=O)O)[C@@H](C)O)C(C)C)C(=O)O
B3: Compound 5 (peptide)
peptide: H-H[Aib]QGTFTSDK([AEEA-AEEA-γGlu-Stearoyl])SKYLD[Aib]RRAQDFVQWLMNTKEYEK([AEEA-AEEA-AEEA-γGlu-C18 diacid])EYE-OH
SMILES: CCCCCCCCCCCCCCCCCC(=O)N[C@@H](CCC(=O)NCCOCCOCC(=O)NCCOCCOCC(=O)NCCCC[C@H](NC(=O)[C@H](CC(=O)O)NC(=O)[C@H](CO)NC(=O)[C@@H](NC(=O)[C@H](Cc1ccccc1)NC(=O)[C@@H](NC(=O)CNC(=O)[C@H](CCC(N)=O)NC(=O)C(C)(C)NC(=O)[C@@H](N)Cc1c[nH]cn1)[C@@H](C)O)[C@@H](C)O)C(=O)N[C@@H](CO)C(=O)N[C@@H](CCCCN)C(=O)N[C@@H](Cc1ccc(O)cc1)C(=O)N[C@@H](CC(C)C)C(=O)N[C@@H](CC(=O)O)C(=O)NC(C)(C)C(=O)N[C@@H](CCCNC(=N)N)C(=O)N[C@@H](CCCNC(=N)N)C(=O)N[C@@H](C)C(=O)N[C@@H](CCC(N)=O)C(=O)N[C@@H](CC(=O)O)C(=O)N[C@@H](Cc1ccccc1)C(=O)N[C@H](C(=O)N[C@@H](CCC(N)=O)C(=O)N[C@@H](Cc1c[nH]c2ccccc12)C(=O)N[C@@H](CC(C)C)C(=O)N[C@@H](CCSC)C(=O)N[C@@H](CC(N)=O)C(=O)N[C@H](C(=O)N[C@@H](CCCCN)C(=O)N[C@@H](CCC(=O)O)C(=O)N[C@@H](Cc1ccc(O)cc1)C(=O)N[C@@H](CCC(=O)O)C(=O)N[C@@H](CCCCNC(=O)COCCOCCNC(=O)COCCOCCNC(=O)COCCOCCNC(=O)CC[C@H](NC(=O)CCCCCCCCCCCCCCCCC(=O)O)C(=O)O)C(=O)N[C@@H](CCC(=O)O)C(=O)N[C@@H](Cc1ccc(O)cc1)C(=O)N[C@@H](CCC(=O)O)C(=O)O)[C@@H](C)O)C(C)C)C(=O)O
B4: Comparative Example Compound 8 (peptide)
peptide: H-H[Aib]QGTFTSDK([AEEA-AEEA-γGlu-Stearoyl])SKYLD[Aib]RRAQDFVQWLMNTK-OH
SMILES: CCCCCCCCCCCCCCCCCC(=O)N[C@@H](CCC(=O)NCCOCCOCC(=O)NCCOCCOCC(=O)NCCCC[C@H](NC(=O)[C@H](CC(=O)O)NC(=O)[C@H](CO)NC(=O)[C@@H](NC(=O)[C@H](Cc1ccccc1)NC(=O)[C@@H](NC(=O)CNC(=O)[C@H](CCC(N)=O)NC(=O)C(C)(C)NC(=O)[C@@H](N)Cc1c[nH]cn1)[C@@H](C)O)[C@@H](C)O)C(=O)N[C@@H](CO)C(=O)N[C@@H](CCCCN)C(=O)N[C@@H](Cc1ccc(O)cc1)C(=O)N[C@@H](CC(C)C)C(=O)N[C@@H](CC(=O)O)C(=O)NC(C)(C)C(=O)N[C@@H](CCCNC(=N)N)C(=O)N[C@@H](CCCNC(=N)N)C(=O)N[C@@H](C)C(=O)N[C@@H](CCC(N)=O)C(=O)N[C@@H](CC(=O)O)C(=O)N[C@@H](Cc1ccccc1)C(=O)N[C@H](C(=O)N[C@@H](CCC(N)=O)C(=O)N[C@@H](Cc1c[nH]c2ccccc12)C(=O)N[C@@H](CC(C)C)C(=O)N[C@@H](CCSC)C(=O)N[C@@H](CC(N)=O)C(=O)N[C@H](C(=O)N[C@@H](CCCCN)C(=O)O)[C@@H](C)O)C(C)C)C(=O)O

How the values were obtained:
in vivo = conditions: cynomolgus monkey, sc
From the text: Cynomolgus monkeys were used to evaluate the pharmacokinetics in monkeys of the acylated oxyntomodulin peptide analogs according to the present invention.

glucagon receptor = glucagon receptor (Homo sapiens, UniProt P47871); test: Human glucagon receptor activation assay (CRE-luciferase); type: cell-based; set-up: host or cells: CHO-K1; conditions: CHO-K1 cells transiently transfected
Procedure: (§1) Then, the resulting increased luciferase activity was evaluated as a measurement of the effect on each receptor activation.
(§2) For positive control, endogenous ligand GLP-1 or glucagon was used for respective evaluation. The above-mentioned acylated oxyntomodulin peptide analogs of Comparative Example 8-12 were synthesized and used as comparative examples.
(§3) After 3 hours of transfection, medium was exchanged to Alpha Minimal Essential Medium (α-MEM) comprising 10% fetal bovine serum (FBS). Next day, the medium was exchanged to α-MEM comprising the acylated oxyntomodulin peptide analog of the present invention and 0.1% bovine serum albumin (BSA). After 6 hours, dual luciferase assay reagent (Promega) was added in the same amount as the medium in which the cells were submerged, and firefly luciferase and Renilla luciferase activities were successively measured. Firefly luciferase activity values were corrected against Renilla luciferase activity to yield transfection efficiency.

GLP-1 receptor = GLP-1 receptor (Homo sapiens, UniProt P43220); test: Human GLP-1 receptor activation assay (CRE-luciferase); type: cell-based; set-up: host or cells: CHO-K1
Procedure: as §1, §2, §3

Human GLP-1 receptor = Human GLP-1 receptor (human, UniProt P43220); test: cell-based or functional assay
Human glucagon receptor = Human glucagon receptor (human, UniProt P47871); test: cell-based or functional assay

GLP-1 receptor, sequence (P43220 24-463): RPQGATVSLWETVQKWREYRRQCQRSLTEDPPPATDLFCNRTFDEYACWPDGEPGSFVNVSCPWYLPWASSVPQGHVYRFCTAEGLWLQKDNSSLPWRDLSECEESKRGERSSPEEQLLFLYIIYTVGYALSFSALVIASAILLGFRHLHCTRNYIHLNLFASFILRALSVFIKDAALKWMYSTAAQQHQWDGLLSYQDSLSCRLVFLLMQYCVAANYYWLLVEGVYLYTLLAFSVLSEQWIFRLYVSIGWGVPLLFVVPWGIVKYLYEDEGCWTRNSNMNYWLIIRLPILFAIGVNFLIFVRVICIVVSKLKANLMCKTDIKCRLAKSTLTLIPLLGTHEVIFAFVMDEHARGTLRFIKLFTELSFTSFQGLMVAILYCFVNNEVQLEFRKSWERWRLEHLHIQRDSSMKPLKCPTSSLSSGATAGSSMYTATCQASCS
glucagon receptor, sequence (P47871 26-477): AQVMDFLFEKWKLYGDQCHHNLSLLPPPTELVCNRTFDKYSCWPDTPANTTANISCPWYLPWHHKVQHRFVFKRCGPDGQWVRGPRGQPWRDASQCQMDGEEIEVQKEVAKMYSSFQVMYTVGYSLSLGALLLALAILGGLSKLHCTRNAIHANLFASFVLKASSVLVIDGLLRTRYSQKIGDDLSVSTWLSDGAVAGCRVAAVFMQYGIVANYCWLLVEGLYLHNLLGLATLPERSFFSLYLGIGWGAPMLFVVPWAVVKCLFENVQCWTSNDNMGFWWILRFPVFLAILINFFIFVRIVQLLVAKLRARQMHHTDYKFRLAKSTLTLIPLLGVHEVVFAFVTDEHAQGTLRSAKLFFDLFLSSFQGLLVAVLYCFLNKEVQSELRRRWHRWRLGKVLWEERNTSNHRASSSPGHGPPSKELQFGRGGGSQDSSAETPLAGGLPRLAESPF

Molecule	EC50 (Human GLP-1 receptor) [nM]	Maximum activation (% vs GLP-1) (Human GLP-1 receptor) [%]	EC50 (Human glucagon receptor) [nM]	Maximum activation (% vs GCG) (Human glucagon receptor) [%]	further results
CCCCCCCCCCCCCCCCCC(=O)N[C@@H](CCC(=O)NCCOCCOCC(=O)NCCOCCOCC(=O)NCCCC[C@H](NC(=O)[C@H](CC(=O)O)NC(=O)[C@H](CO)NC(=O)[C@@H](NC(=O)[C@H](Cc1ccccc1)NC(=O)[C@@H](NC(=O)CNC(=O)[C@H](CCC(N)=O)NC(=O)C(C)(C)NC(=O)[C@@H](N)Cc1c[nH]cn1)[C@@H](C)O)[C@@H](C)O)C(=O)N[C@@H](CO)C(=O)N[C@@H](CCCCN)C(=O)N[C@@H](Cc1ccc(O)cc1)C(=O)N[C@@H](CC(C)C)C(=O)N[C@@H](CC(=O)O)C(=O)NC(C)(C)C(=O)N[C@@H](CCCNC(=N)N)C(=O)N[C@@H](CCCNC(=N)N)C(=O)N[C@@H](C)C(=O)N[C@@H](CCC(N)=O)C(=O)N[C@@H](CC(=O)O)C(=O)N[C@@H](Cc1ccccc1)C(=O)N[C@H](C(=O)N[C@@H](CCC(N)=O)C(=O)N[C@@H](Cc1c[nH]c2ccccc12)C(=O)N[C@@H](CC(C)C)C(=O)N[C@@H](CCSC)C(=O)N[C@@H](CC(N)=O)C(=O)N[C@H](C(=O)N[C@@H](CCCCN)C(=O)N[C@@H](CCC(=O)O)C(=O)N[C@@H](Cc1ccc(O)cc1)C(=O)N[C@@H](CCC(=O)O)C(=O)N[C@@H](CCCCNC(=O)CCCCCCCCCCCCCCC)C(=O)N[C@@H](CCC(=O)O)C(=O)N[C@@H](Cc1ccc(O)cc1)C(=O)N[C@@H](CCC(=O)O)C(=O)O)[C@@H](C)O)C(C)C)C(=O)O [Compound 9]	–	–	–	–	half-life (in vivo; Monkey PK (S.C. half-life)): 6 to 12 h; half-life (in vivo; monkey PK half-life): < 12 h; Emax (glucagon receptor; 6 h, relative to glucagon, read-out: GCG receptor Maximum activation (% vs GCG)): 73.3%; EC50 (glucagon receptor; 6 hours, 0.1% BSA, read-out: GCG receptor EC50): 0.1 to 1 nM; Emax (GLP-1 receptor; CHO-K1, 6 h, read-out: GLP-1 receptor Maximum activation (% vs GLP-1)): 70.4%; EC50 (GLP-1 receptor; CHO-K1 cells transiently transfected, luciferase, 6 hours, 0.1% BSA): 0.1 to 1 nM
B1	< 0.1	102	< 0.1	107	–
B2	–	98.3	–	98.3	–
H-H[Aib]QGTFTSDK([AEEA-AEEA-γGlu-Stearoyl])SKYLD[Aib]RRAQDFVQWLMNTKEYEK([Lys-C18 diacid])EYE-OH [Compound 4]	–	87.9	≥ 1	95.4	–
B3	–	93.6	–	99.4	–
H-H[Aib]QGTFTSDK([AEEA-AEEA-γGlu-Stearoyl])SKYLD[Aib]RRAQDFVQWLMNTKEYEK([Lys-AEEA-AEEA-AEEA-γGlu-C18 diacid])EYE-OH [Compound 6]	–	83.8	–	89.1	–
H-H[Aib]QGTFTSDK([AEEA-AEEA-γGlu-Stearoyl])SKYLD[Aib]RRAQDFVQWLMNTKEYEK(17‑aminocarboxy‑1‑oxoheptadecyl)EYE-OH [Compound 7]	< 0.1	90.8	< 0.1	100	–
B4	< 0.1	99.3	< 0.1	103	–
